Test results reported in US20140356285A1, “COMPOSITIONS AND METHODS RELATED TO TISSUE TARGETING” (THE BOARD OF REGENTS OF THE UNIVERSITY OF TEXAS SYSTEM, priority 2011, published 2014).
One block for each molecule: values may come before it. No end group written: not given here. *: point of attachment. Biotin = O=C1N[C@H]2[C@H](CS[C@H]2CCCCC(=O)*)N1

T1: PR-3 (Homo sapiens, UniProt P24158)
T1 construct: purchased Sigma
T1 sequence (P24158 28-248 limits assumed): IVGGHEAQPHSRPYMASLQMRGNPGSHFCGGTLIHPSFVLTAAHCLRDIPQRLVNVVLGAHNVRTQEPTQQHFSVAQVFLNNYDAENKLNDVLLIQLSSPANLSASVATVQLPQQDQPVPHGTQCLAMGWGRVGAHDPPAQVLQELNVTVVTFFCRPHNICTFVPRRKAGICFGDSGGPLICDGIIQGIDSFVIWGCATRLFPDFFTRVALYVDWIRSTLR

T2: prohibitin (Homo sapiens, UniProt P35232)
T2 construct: gift from Dr. Srikumar Chellappan (H. Lee Moffitt Cancer Center & Research Institute)
T2 sequence (P35232 1-272): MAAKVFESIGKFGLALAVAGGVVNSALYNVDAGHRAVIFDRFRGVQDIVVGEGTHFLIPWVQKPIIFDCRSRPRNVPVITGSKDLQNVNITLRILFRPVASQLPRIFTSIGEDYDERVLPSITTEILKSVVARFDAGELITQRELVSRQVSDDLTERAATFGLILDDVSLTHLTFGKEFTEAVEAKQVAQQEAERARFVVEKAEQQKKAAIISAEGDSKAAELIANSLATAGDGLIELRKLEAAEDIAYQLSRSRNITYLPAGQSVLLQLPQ

T3: ANXAS (Homo sapiens, UniProt P08758)
T3 construct: purchased AmProx
T3 sequence (P08758 1-320): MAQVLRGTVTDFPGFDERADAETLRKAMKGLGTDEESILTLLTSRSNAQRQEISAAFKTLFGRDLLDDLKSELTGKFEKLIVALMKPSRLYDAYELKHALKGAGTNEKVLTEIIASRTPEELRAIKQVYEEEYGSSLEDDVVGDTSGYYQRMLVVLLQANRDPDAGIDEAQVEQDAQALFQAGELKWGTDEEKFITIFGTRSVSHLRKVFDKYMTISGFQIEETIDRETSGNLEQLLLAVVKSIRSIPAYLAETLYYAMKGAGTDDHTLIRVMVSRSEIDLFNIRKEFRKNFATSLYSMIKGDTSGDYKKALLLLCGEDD

T4: His6-ANXA5 (UniProt P08758 1-320, limits assumed)
T4 construct: also called ANXAS (so in the source); control His6-ANXAS; not shown: His6 tag
T4 sequence (looked up): T3 sequence (P08758 1-320)

B1: negative control peptide CARAC (peptide)
peptide: Biotin-CARAC
modifications: also: cyclized, type and places not given here
notes: Negative control on monoavidin beads; also called control elution peptide
B2: human leukocyte proteinase-3 (PR-3) (enzyme)
chain: IVGGHEAQPHSRPYMASLQMRGNPGSHFCGGTLIHPSFVLTAPHCLRDIPQRLVNVVLGAHNVRTQEPTQQHFSVAQVFLNNYDAENKLNDILLIQLSSPANLSASVTSVQLPQQDQPVPPHGTQCLAMGWGRVGAHDPPAQVLQELNVTVVTFFCRPHNICTFVPRRKAGICCFGDSGGPLICDGIIQGIDSFVIWGCATRLFPDFFTRVAYDWIRSTLR
notes: In the ELISAs the PR-3 was bought (Sigma); also called active PR-3; endogenous PR-3
B3: GST-prohibitin (other, UniProt P35232 1-272, looked up)
chain: T2 sequence (P35232 1-272)
notes: Gift from Dr. Srikumar Chellappan; also called recombinant GST-prohibitin; glutathione S-transferase (GST)-conjugated protein; not shown: glutathione S-transferase (GST) tag

Key:
PR-3 = target: T1, PR-3; test: Phage binding competition assay, targeted phage and cognate synthetic peptide; details: FIG. 4E
Description: (§1) Phage Binding Assays. Binding of targeted phage to immobilized candidate receptors was evaluated as described (Kolonin et al., 2006b). Micro-wells of 96-well plates were blocked with phosphate-buffered saline (PBS) containing 3% BSA, washed, and incubated with 10^9 TU of targeted phage. Inhibition of phage binding was performed in the presence of increasing concentrations of synthetic peptides, as indicated. For phage display screening on immobilized prohibitin, 10^9 TU of phage clones recovered from the second round of in vivo selection were incubated ON with 1 μg of immobilized recombinant GST-prohibitin. Bound phage were recovered by infection of host bacteria (E. coli K91 Kan).

[1] = test system: cells of mouse WAT vasculature; details: previous research (Kolonin et al., 2004); cited from earlier work
prohibitin = target: T2, prohibitin; test: Phage binding assay on immobilized prohibitin; details: increasing concentrations of synthetic peptide (FIG. 3B)
Description: as §1

ANXA2 = target: T5, ANXA2 (Homo sapiens, UniProt P07355); test: Capture of GST-prohibitin with immobilized His6-ANXA2; type: binding; details: recombinant GST-conjugated protein (FIG. 3E)
T5 construct: purchased AmProx
Description: (§2) Protein Binding Assays. Titration of anti-peptide antibodies was performed on Maxisorb Immunoplates (Nunc) coated with 1 μg/mL of peptides or proteins. Incubation with primary antibodies was followed by signal detection with goat anti-rabbit HRP-conjugated IgG (Sigma-Aldrich; St. Louis, Mo.) and 3, 3′,5,5′-tetramethylbenzidine (TMB) (Calbiochem). To evaluate protein-protein interactions, the inventors performed ELISA on 96-well plates coated with 1 μg/mL of recombinant candidate receptors, as indicated. Blocking of exposed non-specific binding sites was performed with PBS containing either 2% gelatin or 1% BSA, as indicated. Ligand candidates were added to the wells at different concentrations, as indicated. Specific binding was detected by incubation with appropriate primary and secondary antibodies. For capture experiments, immobilized His6-ANXA2 and ANXAS were incubated with recombinant GST-prohibitin. Protein interaction, assessed by immunoblotting with anti-GST antibody, was detected with anti-rabbit or anti-goat secondary alkaline phosphatase-conjugated polyclonal antibodies.

ANXAS = target: T3, ANXAS; test: Capture of GST-prohibitin with immobilized control His6-ANXAS; type: binding; details: recombinant GST-conjugated protein (FIG. 3E)
Description: as §2

[2] = target: B2; test: affinity capture on monoavidin beads loaded with biotinylated peptide, from a membrane extract of human bone marrow cells; SDS-PAGE
Description: (B) Liquid chromatography-mass spectrometry (LC-MS/MS) of peptides matching the candidate receptor PR-3. Peptides identified are underlined. […] Arrow: ˜35 kDa band specific to the RAGE-like peptides.

BMPRIA-Fc = target: T6, BMPRIA-Fc (UniProt P36894 24-152); test: ELISA on immobilized PR-3
T6 construct: Bought (R&D Systems); control protein; also called Fc-BMPRIA; not shown: Fc tag

BSA = target: T7, BSA (bovine, UniProt P02769 25-607); test: ELISA on immobilized PR-3
T7 construct: Control protein added to immobilized PR-3; also called bovine serum albumin; control protein

His6-ANXA5 = target: T4, His6-ANXA5; test: capture of GST-prohibitin on immobilized His6-annexin, immunoblot with anti-GST antibody

T6 sequence (P36894 24-152): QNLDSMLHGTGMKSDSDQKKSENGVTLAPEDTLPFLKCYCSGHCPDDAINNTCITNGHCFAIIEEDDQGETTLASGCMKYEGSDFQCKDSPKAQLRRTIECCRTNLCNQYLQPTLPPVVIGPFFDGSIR
T7 sequence (P02769 25-607 limits assumed): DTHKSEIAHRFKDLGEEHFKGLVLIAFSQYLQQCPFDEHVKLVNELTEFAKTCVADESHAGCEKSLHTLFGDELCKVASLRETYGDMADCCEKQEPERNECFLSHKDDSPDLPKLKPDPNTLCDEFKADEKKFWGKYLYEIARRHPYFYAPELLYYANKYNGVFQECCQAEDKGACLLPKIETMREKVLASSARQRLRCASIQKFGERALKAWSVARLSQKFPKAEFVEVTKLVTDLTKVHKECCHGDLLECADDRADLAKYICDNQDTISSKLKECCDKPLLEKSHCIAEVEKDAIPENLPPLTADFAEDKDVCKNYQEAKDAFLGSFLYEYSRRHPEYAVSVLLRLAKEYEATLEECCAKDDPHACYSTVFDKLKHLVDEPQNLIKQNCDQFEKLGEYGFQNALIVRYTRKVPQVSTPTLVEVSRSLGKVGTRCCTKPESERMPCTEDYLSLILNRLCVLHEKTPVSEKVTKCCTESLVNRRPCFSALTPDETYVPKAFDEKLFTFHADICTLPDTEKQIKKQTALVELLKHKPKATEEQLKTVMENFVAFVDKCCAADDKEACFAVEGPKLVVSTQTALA
T5 sequence (P07355 whole entry): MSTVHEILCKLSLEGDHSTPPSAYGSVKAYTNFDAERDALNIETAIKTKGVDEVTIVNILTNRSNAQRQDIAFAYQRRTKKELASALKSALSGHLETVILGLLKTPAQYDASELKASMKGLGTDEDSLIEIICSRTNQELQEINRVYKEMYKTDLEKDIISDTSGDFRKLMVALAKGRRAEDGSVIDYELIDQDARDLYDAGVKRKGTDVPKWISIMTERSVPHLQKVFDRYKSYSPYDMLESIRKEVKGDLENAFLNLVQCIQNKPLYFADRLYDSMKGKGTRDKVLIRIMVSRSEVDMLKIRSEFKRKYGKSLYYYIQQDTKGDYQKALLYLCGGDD

- inhibition of CWELGGGPC-phage binding by synthetic peptide (PR-3): specifically inhibited
Molecule: CWELGGGPC

Molecule: CKGGRAKDC
- localization and internalization in WAT vasculature [1]: localized to and internalized by cells of mouse WAT vasculature
- inhibition of CKGGRAKDC-displaying phage binding to prohibitin by synthetic peptide (prohibitin): specifically inhibited in a concentration-dependent manner

- binding of prohibitin to ANXA2 (ANXA2): binds to ANXA2
- binding of prohibitin to control protein ANXAS (ANXAS): not to the control protein ANXAS
Molecule: prohibitin: recombinant glutathione S-transferase (GST)-conjugated prohibitin

Molecule: B1
- binding result [2]: no binding

Molecule: B2
- binding result (BMPRIA-Fc): no binding
- binding result (BSA): no binding

Molecule: B3
- binding result (His6-ANXA5): no binding
